The source of these data is US20240368233A1 (University of Washington, published 2024).

In data set [1] the target is T1, 278B.
T1 construct: also called LHD278 B; LHD278 chainB
T1 chain: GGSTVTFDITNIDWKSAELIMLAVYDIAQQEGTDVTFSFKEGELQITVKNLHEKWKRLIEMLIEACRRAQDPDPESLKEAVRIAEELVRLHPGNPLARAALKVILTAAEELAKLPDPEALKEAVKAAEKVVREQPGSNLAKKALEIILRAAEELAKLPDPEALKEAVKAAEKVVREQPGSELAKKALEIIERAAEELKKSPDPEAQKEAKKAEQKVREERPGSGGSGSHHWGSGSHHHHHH
In words: BLI, steady state fit. On the procedure: (§1) Biolayer interferometry experiments were performed on an OctetRED96 BLI system (ForteBio, Menlo Park, CA). Streptavidin coated biosensors were first equilibrated for at least 10 minutes in Octet buffer (10 mM HEPES pH 7.4, 150 mM NaCl, 3 mM EDTA, 0.05% Surfactant P20) supplemented with 1 mg/ml Bovine Serum Albumin (SigmaAldrich). Enzymatically biotinylated designs were immobilized onto the biosensors by dipping the biosensors into a solution with 10-50 nM protein for 30-120 s. This was followed by dipping in fresh octet buffer to establish a baseline for 120 s. Titration experiments were performed at 25° C. while rotating at 1,000 r.p.m. Association of designs was allowed by dipping biosensors in solutions containing designed protein diluted in octet buffer until equilibrium was approached followed by dissociation by dipping the biosensors into fresh buffer solution in order to monitor the dissociation kinetics. Steady-state and global kinetic fits were performed using the manufacturer's software (Data Analysis 9.1) assuming a 1:1 binding model.
For orientation: Biolayer interferometry detects binding as a change in optical thickness at a sensor tip.

In data set [2] the target is T1, 278B. As to the kind of experiment: BLI, global kinetic fit, 1:1 model. On the procedure:
as §1

Data set [3] concerns the molecule itself. In words: SEC titration of the protomer alone at several injection concentrations (Superdex 75, normalised A230); self-association.
The target in another data set is T2, DF206.
T2 construct: Bivalent connector
T2 chain: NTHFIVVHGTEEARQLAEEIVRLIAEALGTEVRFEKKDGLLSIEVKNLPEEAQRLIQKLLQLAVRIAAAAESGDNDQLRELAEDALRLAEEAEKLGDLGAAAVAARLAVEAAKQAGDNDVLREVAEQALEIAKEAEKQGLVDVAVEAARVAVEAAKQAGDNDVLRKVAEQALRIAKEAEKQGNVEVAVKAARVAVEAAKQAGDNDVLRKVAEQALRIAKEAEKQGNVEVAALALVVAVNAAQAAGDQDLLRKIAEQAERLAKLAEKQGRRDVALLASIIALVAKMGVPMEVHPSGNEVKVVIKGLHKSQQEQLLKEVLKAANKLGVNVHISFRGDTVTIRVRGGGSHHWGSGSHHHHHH
In words: SEC of mixed components; tetramer (control pentamer) listed in Table 6, neighbours in the chain. On the procedure:
(§2) Complexes and individual components were diluted in 20 mM Tris pH 8.0, 100 mM NaCl. After o/n equilibration of the mixtures at room temperature or 4 degrees C., 500 ul of sample was injected onto a Superdex™ 200 10/300 increase GL (dimers, linear assemblies) or Superose™ 6 increase 10/300 GL (symmetric assemblies) (all columns from GE healthcare) using the absorbance at 230 nm or 473 nm (for GFP tagged components) as read-out. Dimers were mixed at monomer concentrations of 5 μM or higher. Trimer and ABCD tetramer mixtures contained 5 μM of the bivalent connector, and 7.5 μM of each terminal cap (lower absolute concentrations with the same ratios were used for some trimers). ABCA tetramer mixtures contained 5 μM per bivalent connector and 15 μM terminal cap. The hexamer mixture contained 3 μM of components C and D, 3.6 μM of B and E, and 4.4 μM of A and F. The branched assembly shown in FIG. 4A contained 2.8 μM of the trivalent connector and 4 μM of each cap. For the exchange experiment shown in FIG. 5A, the ABC trimer was preincubated at concentrations of 6 μM B and 9 μM each of A and C. C′ was then added to reach a final concentration of 2 μM B, 3 μM each of A and C, and 6 μM C′.

Another data set addresses T3, DF202.
T3 construct: Bivalent connector
T3 chain: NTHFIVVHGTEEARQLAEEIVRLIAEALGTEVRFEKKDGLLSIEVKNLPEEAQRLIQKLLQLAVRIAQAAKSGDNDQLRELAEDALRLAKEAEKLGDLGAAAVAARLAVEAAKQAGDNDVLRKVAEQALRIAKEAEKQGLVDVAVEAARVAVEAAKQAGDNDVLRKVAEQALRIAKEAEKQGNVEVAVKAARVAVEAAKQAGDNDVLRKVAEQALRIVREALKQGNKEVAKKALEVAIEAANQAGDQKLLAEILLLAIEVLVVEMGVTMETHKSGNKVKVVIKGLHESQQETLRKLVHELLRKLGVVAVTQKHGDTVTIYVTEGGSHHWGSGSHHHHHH
In words: SEC of mixed components; trimer listed in Table 6.

A further data set has as its target T4, DFB-1.
T4 construct: Bivalent connector
T4 chain: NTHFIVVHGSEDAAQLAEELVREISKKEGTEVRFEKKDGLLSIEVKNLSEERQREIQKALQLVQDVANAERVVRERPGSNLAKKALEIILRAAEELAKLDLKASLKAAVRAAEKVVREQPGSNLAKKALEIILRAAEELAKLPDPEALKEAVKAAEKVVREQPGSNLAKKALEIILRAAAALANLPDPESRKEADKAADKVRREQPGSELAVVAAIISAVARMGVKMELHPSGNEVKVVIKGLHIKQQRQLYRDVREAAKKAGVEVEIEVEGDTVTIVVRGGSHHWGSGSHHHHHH
As to the kind of experiment: SEC of mixed components; linear tetramer listed in Table 6, neighbours in the chain.

The next data set addresses T5, DFB0.
T5 construct: Bivalent connector
T5 chain: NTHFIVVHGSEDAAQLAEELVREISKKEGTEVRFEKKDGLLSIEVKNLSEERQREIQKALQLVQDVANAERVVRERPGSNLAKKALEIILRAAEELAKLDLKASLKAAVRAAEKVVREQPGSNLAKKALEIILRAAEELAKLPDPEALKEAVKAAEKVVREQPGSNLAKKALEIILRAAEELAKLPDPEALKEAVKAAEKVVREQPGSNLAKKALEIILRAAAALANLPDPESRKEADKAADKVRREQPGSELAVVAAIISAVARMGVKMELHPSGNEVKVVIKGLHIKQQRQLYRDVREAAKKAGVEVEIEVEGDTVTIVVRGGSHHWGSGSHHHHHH
The data set is described as above.

Data set [4] has as its target T6, 298B.
T6 construct: also called LHD298 B; LHD298 chainB
T6 chain: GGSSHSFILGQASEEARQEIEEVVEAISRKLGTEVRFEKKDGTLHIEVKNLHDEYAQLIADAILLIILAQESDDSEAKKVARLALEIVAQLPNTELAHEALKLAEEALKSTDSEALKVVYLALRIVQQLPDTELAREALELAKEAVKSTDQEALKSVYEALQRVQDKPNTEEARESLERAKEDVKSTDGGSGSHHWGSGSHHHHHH
As to the kind of experiment: BLI, steady state fit. As for the experimental part: as §1

For data set [5], the target named is T6, 298B. As to the kind of experiment: BLI, global kinetic fit, 1:1 model. As for the experimental part: as §1
In data set [6] the target is T7, 284B.
T7 construct: also called LHD284 B; LHD284 chainB
T7 chain: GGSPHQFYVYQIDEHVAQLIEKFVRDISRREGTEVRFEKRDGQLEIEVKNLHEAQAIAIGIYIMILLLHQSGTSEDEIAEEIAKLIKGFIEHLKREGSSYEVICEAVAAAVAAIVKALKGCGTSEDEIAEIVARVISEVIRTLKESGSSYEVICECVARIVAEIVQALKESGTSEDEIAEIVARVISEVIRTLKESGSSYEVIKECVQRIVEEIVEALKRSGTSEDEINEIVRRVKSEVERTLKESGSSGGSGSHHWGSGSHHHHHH
As to the kind of experiment: BLI, steady state fit. On the procedure:
as §1

In data set [7] the target is T7, 284B. In words: BLI, global kinetic fit, 1:1 model. On the procedure: as §1
For data set [8], the target named is T8, 289B.
T8 construct: also called LHD289 B; LHD289 chainB
T8 chain: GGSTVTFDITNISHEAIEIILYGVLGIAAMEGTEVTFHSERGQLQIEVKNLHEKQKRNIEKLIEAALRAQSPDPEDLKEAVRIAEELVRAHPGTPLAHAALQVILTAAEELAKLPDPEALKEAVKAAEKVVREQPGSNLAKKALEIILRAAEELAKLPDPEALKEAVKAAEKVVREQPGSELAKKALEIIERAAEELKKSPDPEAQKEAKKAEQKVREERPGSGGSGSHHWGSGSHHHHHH
In words: BLI, steady state fit. As for the experimental part: as §1

The target of data set [9] is T8, 289B. As to the kind of experiment: BLI, global kinetic fit, 1:1 model. As for the experimental part:
as §1

For data set [10], the target named is T9, 275B.
T9 construct: also called LHD275 B; LHD275B
T9 chain: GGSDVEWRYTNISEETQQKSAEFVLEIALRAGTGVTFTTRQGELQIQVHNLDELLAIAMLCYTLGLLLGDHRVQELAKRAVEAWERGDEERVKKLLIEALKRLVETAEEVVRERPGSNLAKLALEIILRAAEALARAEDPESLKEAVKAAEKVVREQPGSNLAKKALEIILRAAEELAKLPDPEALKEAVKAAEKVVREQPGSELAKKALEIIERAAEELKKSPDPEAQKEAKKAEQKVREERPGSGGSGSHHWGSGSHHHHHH
In words: SEC of mixed components; tetramer (control pentamer) listed in Table 6, neighbours in the chain. As for the experimental part:
as §2

The target of data set [11] is T9, 275B. As to the kind of experiment: BLI, steady state fit. As for the experimental part: as §1
Data set [12] deals with T9, 275B. As to the kind of experiment: BLI, global kinetic fit, 1:1 model. As for the experimental part:
as §1

B1: LHD278 chainA (designed binder)
chain: GRQEKVLKSIEETVRKMGVRMLTHRGGNAVIVVIEGLHPSQIKQLMQDVIKTAKKQGVTVTITVSGDIVVIMVVVGASDEEQEEARRLVQEIARALQEAKRKGANEEQLEQLLRELLERAEREG
notes: also called LHD278A
What is called Kd is the constant that tells how readily two partners part at equilibrium. One may read the koff as the rate constant with which the complex falls apart. As usually defined, the kon is a measure of how fast the partners come together. A low value points to slow association. Molecule B1 showed a Kd with 278B [1] of 3.4 nM. In the data set with 278B [2], this molecule came in with a Kd of 0.8 nM, a koff of 0.00022 s⁻¹ and an association rate constant (kon) of 290000 M⁻¹ s⁻¹. Besides, the binding result in data set [3] is on record as “no binding (tested: 52.4 uM)”.

B2: DFA0 (designed binder)
chain: TTNFHLINGSEEARQLIEKAVRAISKKEGTEVHFEKSDGTLEIRVKNLHEKREREIKKVIELILEVAAAERIVRERPGSNLAKKALEIILRAAEELAKADVDAALEAAVRAAEKVVREQPGSNLAKKALEIILRAAEELAKLPDPEALKEAVKAAEKVVREQPGSNLAKKALEIILRAAEELAKLPDPEALKEAVKAAEKVVREQPGSNLAKKALEIILRAAAALANLPDPESRKEADKAADKVRREQPGSELAVVAAIISAVARMGVKMELHPSGNEVKVVIKGLHIKQQRQLYRDVREAAKKAGVEVEIEVEGDTVTIVVRGGSHHWGSGSHHHHHH
notes: Bivalent connector
With B2, the binding result with DF206, with DF202, with DFB-1 and in the data set with DFB0 was “binds” in each case.

B3: LHD298 chainA (designed binder)
chain: GRQEKVLKSIEETVRKMGVTMETHRSGNTVKVVIKGLHESQQEQLHKDVEETVQKEGVFVLVSHHGDTVTIQVYE
notes: also called LHD298A
B3: binding with 298B [4] was characterised by a dissociation constant (Kd) of 16 nM. Further, in the data set with 298B [5], the Kd is 3.5 nM, the koff worked out at 0.00022 s⁻¹ and the kon worked out at 64000 M⁻¹ s⁻¹.

B4: LHD284 chainA (designed binder)
chain: TDELLERLRQLFEELHERGTIIIVEVHINGERQTKYLILAPKEELKKHLERIREKIEREGSSEVEVKVTSGGTTWTFNEK
notes: also called LHD284A
Molecule B4 registered a Kd with 284B [6] of 97 nM. Besides, in the data set with 284B [7], binding was put at a Kd of 8.9 nM, the koff stood at 0.0012 s⁻¹ and the kon worked out at 130000 M⁻¹ s⁻¹.

B5: LHD289 chainA (designed binder)
chain: GRQEKVLKSIEETVRKMGVTMLTHRHGNVVFVVILGLHKQQALQLLRDVHRTAHKQGVTLSITFSGDIVVIAVTVGASEEEKKEVRKIVKEIAKQLRHAETEEEAKEIVQRVIEEWQEEG
notes: also called LHD289A
As to B5, binding with 289B [8] was put at a Kd of 610 nM. In the data set with 289B [9], this molecule yielded a Kd of 1080 nM, a koff of 0.057 s⁻¹ and a kon of 53000 M⁻¹ s⁻¹.

B6: DF275A-1 (designed binder)
chain: HHHHHHGSGSGRQEKVLKSIEETVRKMGVEMLTFRAGKAVIVVIRGLHPEQAKQLLRDVSQTAHKQGVTVTLTFHGDVVFILVLVGASEEQQRAMQLLIQALARIIHEAKRRGVSEEQLKRMIEAAARLIEVLLKALEAAREGNTDEVREQLQRALEIVREIGLTAAVRLALLVVEAVATLAAKRGNTDAVREALEVALEIARESGTTEAVKLALEVVARVAIEAARRGNTDAVREALEVALEIARESGTTEAVKLALEVVARVAIEAARRGNTDAVREALAVAVKIALKSGTEEAFRLAKEVIKRVSDEAKKQGNEDAVKEAESFDAAAELILSLLKLFRELHERGTEIVVEVHINGRKTEIEVQGIDKRLLQIILEVIIEEIAREGPDKVEVNVHSGGQTWTFRYGGS
notes: Bivalent connector
For the molecule B6, in the data set with 275B [10], the binding result is recorded as “binds”.

B7: LHD275 chainA (designed binder)
chain: GRQEKVLKSIEETVRKMGVEMLTFRAGNAVIVVIRGLHPEQAKQLLRDVSQTAHKQGVTVTLTFHGDVVFILVLVGASEEEQKHMQERIQELARIIHEAKRRGVSEEQLREIAEKMAKEIQEWG
notes: also called LHD275A
In turn, B7 showed a Kd with 275B [11] of 4.5 nM. In the data set with 275B [12], the Kd was 2.9 nM, the koff was 0.00041 s⁻¹ and the kon was found to be 140000 M⁻¹ s⁻¹. Moreover, the binding result in [3] was “no binding (tested: 8.0 uM)”.
